We go through 1 molecule from patent publication US20230383001A1 (Kyowa Kirin, published 2023).

This assay addresses T1, OX40 on OX40-positive helper T-cells in blood of patients (human, UniProt P43489 29-277).
T1 construct: whole, on cells; The cells came from trial patients; also called CD134; human OX40
T1 sequence (looked up): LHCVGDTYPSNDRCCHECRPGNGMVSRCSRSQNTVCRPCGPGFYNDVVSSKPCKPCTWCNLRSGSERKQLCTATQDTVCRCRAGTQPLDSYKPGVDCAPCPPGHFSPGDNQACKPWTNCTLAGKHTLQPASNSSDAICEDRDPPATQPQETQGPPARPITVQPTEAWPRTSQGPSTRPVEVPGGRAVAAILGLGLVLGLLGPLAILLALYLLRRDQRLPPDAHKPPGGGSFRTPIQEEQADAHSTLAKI
Briefly: flow cytometry of patients' blood after dosing: total versus unoccupied OX40-positive helper T cells (receptor occupancy, ex vivo). On the procedure: Blood samples for flow cytometry are collected from the subjects who voluntarily agree. When the timing overlaps the study drug administration, the sample is taken before the study drug administration. The OX40-positive cells and the CLA-positive memory T cells in the blood of the patients are counted. When OX40-positive cells in the blood are analyzed, OX40-positive cells in helper T cells are analyzed by using helper T cell markers. Therefore, OX40-positive cells in the blood herein means OX40 positive helper T cells in the blood.
For orientation: A flow cytometer gives signals particle by particle.

B1: KHK4083 (antibody, human IgG1, kappa, V domains shown)
VH: QITLKESGPTLVKPKQTLTLTCTFSGFSLSTSGMGVGWIRQPPGKALEWLAVIYWDDHQLYSPSLKSRLTITKDTSKNQVVLTMTNMDPVDTATYYCAHRRGAFQHWGQGTLVTVSS
VL: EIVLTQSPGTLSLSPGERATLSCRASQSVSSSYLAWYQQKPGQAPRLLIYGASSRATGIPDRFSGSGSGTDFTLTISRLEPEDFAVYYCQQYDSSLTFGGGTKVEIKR
notes: also called anti-OX40 antibody
As for B1, the binding result is given as “binds”.
